Laboratory results: paper PMC5231407
pKd: −log10 of the molar value. “And” between values parts separate entries of the source, which are not always exact repeats. Equal values may be shown once.

Key:
[1] = target: LapG labeled with Oregon Green 488 maleimide at C135 (Pseudomonas fluorescens Pf0-1); assay: fluorescence polarisation; fluorescence anisotropy; 1 µM Oregon Green 488-labeled LapG fixed, detergent-solubilized LapD titrated 1–36 µM; without c-di-GMP; apparent
[2] = target: LapD (Pseudomonas fluorescens Pf0-1), full-length, non-fluorescent, detergent-solubilized (Pseudomonas fluorescens Pf0-1) (UniProt Q3KK31); assay: SEC-MALS; LapD (~28 μM) incubated with 100 μM c-di-GMP, concentrated ~5-fold; 20 μM c-di-GMP in the mobile phase
[3] = target: LapD (Pseudomonas fluorescens Pf0-1), full-length, non-fluorescent, detergent-solubilized (Pseudomonas fluorescens Pf0-1) (UniProt Q3KK31); assay: SEC-MALS; apo protein, ~10 mg/ml (~140 μM), Superdex 200 10/300; 25 mM Tris-HCl pH 7.6, 250 mM NaCl, 0.005% LMNG, 0.04% CHAPS; protein-conjugate analysis
[4] = target: LapD (Pseudomonas fluorescens Pf0-1), full-length, non-fluorescent, detergent-solubilized (Pseudomonas fluorescens Pf0-1) (UniProt Q3KK31); assay: SEC-MALS; LapD incubated with LapG and c-di-GMP; c-di-GMP omitted from the mobile phase
[5] = target: LapG labeled with Oregon Green 488 maleimide at C135 (Pseudomonas fluorescens Pf0-1); assay: fluorescence polarisation; fluorescence anisotropy; 1 µM Oregon Green 488-labeled LapG fixed, detergent-solubilized LapD titrated 1–36 µM; with 100 µM c-di-GMP; apparent
[6] = target: LapD (Pseudomonas fluorescens Pf0-1), full-length, non-fluorescent, detergent-solubilized (Pseudomonas fluorescens Pf0-1) (UniProt Q3KK31); assay: SEC-MALS; LapD incubated with 100 μM c-di-GMP and a 3-fold molar excess of LapG over LapD dimer, concentrated; 20 μM c-di-GMP in the mobile phase
[7] = target: LapD^TMcys lacking sfGFP (non-fluorescent; C304A, C397S) (Pseudomonas fluorescens Pf0-1) (UniProt Q3KK31); assay: SEC-MALS; apo protein, ~10 mg/ml (~140 μM), Superdex 200 10/300; 25 mM Tris-HCl pH 7.6, 250 mM NaCl, 0.005% LMNG, 0.04% CHAPS; protein-conjugate analysis
[8] = target: LapD^TMcys-A602C lacking sfGFP (non-fluorescent) (Pseudomonas fluorescens Pf0-1) (UniProt Q3KK31); assay: as above
[9] = target: LapD–sfGFP (native LapD with C-terminal monomeric superfolder GFP) (Pseudomonas fluorescens Pf0-1) (UniProt Q3KK31); assay: as above

Q: “LapD (Pseudomonas fluorescens Pf0-1), full-length, non-fluorescent, detergent-solubilized (from UniProt Q3KK31 1-648) (receptor)” was tested. Which pKd [1] did it give?
A: The pKd was 4.93.

Q: What about the stoichiometry N [2] of the same substance?
A: The stoichiometry N was 4 and 2.

Q: And the stoichiometry N [3]?
A: The stoichiometry N was 2.

Q: And the stoichiometry N [4]?
A: Its stoichiometry N is 2.

Q: What about the pKd [5] of the same substance?
A: Its pKd is 5.72.

Q: And the stoichiometry N [6]?
A: The stoichiometry N was 4.

Q: Which stoichiometry N [7] does the source give for “LapD^TMcys lacking sfGFP (non-fluorescent; C304A, C397S) (from UniProt Q3KK31 1-648) (receptor)” here?
A: The stoichiometry N was 2.

Q: Which stoichiometry N [8] does the source give for “LapD^TMcys-A602C lacking sfGFP (non-fluorescent) (from UniProt Q3KK31 1-648) (receptor)” here?
A: Its stoichiometry N is 2.

Q: “LapD–sfGFP (native LapD with C-terminal monomeric superfolder GFP) (from UniProt Q3KK31 1-648) (receptor)” was tested. Which stoichiometry N [9] did it give?
A: The stoichiometry N was 2.
